The results in this text go back to the DeepSol protein solubility set.

A short description of this series: soluble on expression in E. coli; label from the status in PepcDB or PDB records.
“MSIYSKILVVADINNDEQPALARAVQLAQKSVSRSRITFFLSIYDFSYDMTSMLSVDERDAMRRGVIHQREQWMRKIAQPYLNDSFDFDVCVVWHNRPYEAIIAEVYAGGHDLLIKGTRKHDVLESVIFTPTDWHLLRKCPTPVLLIKNSDWPEQANILASVHVGSENPTHIDLNDAMVERLKEMSNRLDAEPYLVNAYPVTPANITIELPEFDPTTYTDAVRGHHLTAMKALRQKHGIDEEQT”: the “soluble on expression in E. coli” value is listed as “not soluble”.
Consider “MNQYQKTTERKKQAIIQAALHLFKEKGFKGTSIKSIAKAAQVSPVSIYNYFESKESLVDLCVNKLFEEITQEAENILTSEIDFKMKLCQALALCQKKMSHQISVYFKEKTIKDPTFSKLLTKAIVAKKREIYRSYIKLGKDEGVIAKDLSTELILNVMDALNSIGNQLSESENLGEEIEQIHRLFLYGIFGKI”, for which the “soluble on expression in E. coli” value was “not soluble”.
In the case of “MQQKDAVPDTAKKLKAPLTGLKTEQKVTERRPVAVVVNNHPKARPQSGLSKADIVIEALAEGQITRFLAIFQSQMPETVGPVRSAREYFVTLSNGFDSIFVHHGWSPGAKKQLESGAADYMNGLDFDGSLFWRADFSKPPHNSYTSYDYIKKAAEQKGYKLKQETNPLLFQTSDAKPANESYNVRVDYGTNNVTNLVEYNYDKKAEFYTRSSDGVITTDRETGKPVAMQNIFIVEASHHIIDQDGRRDIDLESGGKGLLFQHGNVIETDWKQVNGRIVPVKDGKWLPFVPGKTWINIVPDLDAASISKGEGVLEHHHHHH”, the “soluble on expression in E. coli” value was “soluble”.
For “MSLDVPLAQTVVWETHVGDFSNDPAGGFPESHRGKYLAFTDDGTSLEGHPDFPTGLAYLKKLGVTAVQLMPIYDFGSVDETTCDRYNWGYDPINYNVPEGSYSTNPFDGTTRIREVKQMVQALHSAGIKVIMDVVYNHMFSTDNWFERTVPKYFLRRKPNGALANGSGCGCDMATERKMFRRFIVESVTFWAREYHMDGFRFDLMGLIDVDTMNAVRAALNEIPGRGRDILMYGEPWSAGASAPLPADTLLAGKQGLAQLDDRIGHFCDTTRDTIKGHVFYSDRPGYVNGGMHANAVAVREAVDAWRHSDRPEGVAGQVIQYVSAHDDLTLWDKLCASLAASSLGSAVAEGDEENTVDVPKTLHDADFSEQGLDAVGPEMAQALHDVLGANRLSAGIVLTSAGIPFMLSGEEFARTKYGNSDSYDSTKELNWLDWNRAWHMRDLIGFYAKLIALRKSDARWFDGNRKIVDTEGDELVFRVGDYLVAVNPSDRTGVVDVAAAAVEGDSGEMHRYWCCLGVSGRGGGVSTGGGDDDYLIMPAHTFAIWRLQEGHHHHHH”, the “soluble on expression in E. coli” value was “not soluble”.
Next, “MGRLFVVNLEGKIYSCKHCKTHLATYEDIISKSFHCKHGKAYLFNKVANVSIGETEERLMMTGKHTVADIFCVSCGSIVGWKYETAHEKNQKYKEGKSVLERFKISGPDGSNYWVSSHGRHIGGSDADDA”: “soluble”.
As to “MSLSRQRCIIVGASHGGVNLAFALRKEGYEGRITLIDADCNLPYHRPPLSKTHLIANEPAGQLLKPEQGYQKADISLMLGVSVVDVKSKNKQVLLDDGTRHPYTQLVLATGASPITPPIPGIDSAKHLYTIRTADDAHAIATAFKQSEQKRVVVIGGGYVGLETAASLRKSGAVVTVLEREPRLLARVTAPMMSDYFYALHRQHGVEVHNDKNVSEIKTNANENSVVCSDGSEYPADIIIVGVGVRVNTALADKANLEINNGIVVNEANQTSAQDIFAIGDCCAQFNPHYQRWLRLESVQNALDQGKVAAAAICHKAFKTQPVPWFWSDQYNIKLQMVGLSQGYDDVVMRKELDKPDSFSVWYFKGNELLAVDAVNNAKAYVLGTKFINAMEQVDKNKLTDNSAPLSASIIKEFAEGHHHHHH”, the “soluble on expression in E. coli” value is “soluble”.
As to “MHHHHHHENLYFQSNAMAKSRLLLSELLDQLSFALCIVRNDYVIVKVNEYFESRVIFDGETMQGKNILELFPESADYLKRKIDTALVIESSSFSSWEQKPHLLPFKSSRPVSGEEEQMYQNLEVIPIHSEDGTIEHVCLCVYDVTIQASQQQ”, the “soluble on expression in E. coli” value is “soluble”.
As for “MSMYTTAQLLAANEKKFKFDPLFLRLFFRESYPFTTEKVYLSQIPGLVNMALYVSPIVSGEVIRSRGGSTSEFTPGYVKPKHEVNPQMTLRRLPDEDPQNLADPAYRRRRIIMQNMRDEELAIAQVEEMQAVSAVLKGKYTMTGEAFDPVEVDMGRSAANNITQSGGTEWSKRDKSTYDPTDDIEAYALNASGVVNIIVFDPKGWALFRSFKAVKEKLDTRRGSNSELETAVKDLGEAVSYKGMYGDTAIVVYSGQYVENDVKKNFLPDNTMVLGNTQARGLRTYGCIQDADAQREGINASARYPKNWVTTGDPAREFTMIQSAPLMLLADPDAFVSVQLA”, the entry is “not soluble”; as for “MGSQAAHMMSMDFEDFPVESAHRILTPRPTVMVTTVDEEGNINAAPFSFTMPVSIDPPVVAFASAPDHHTARNIESTHEFVINITPADIIERMWVTARDIPAGENELEAAGLAWTSSRRVKPPRIVEAPGHLECELLRMFEVGDHNLITGSVVSASVRSGAVKEGLLDVESVKPVLHVGGNKFVVGD”, “not soluble”; as for “SLLLCDIGNSNANFLDDNKYFTLSIDQFLEFKNEQKIFYINVNEHLKEHLKNQKKFINLEPYFLFDTIYQGLGIDRIAACYTIEDGVVVDAGSAITIDIISNSIHLGGFILPGIANYKKIYSHISPRLKSEFNTQVSLDAFPQKTMDALSYGVFKGIYLLIKDAAQNKKLYFTGGDGQFLANYFDHAIYDKLLIFRGMKKIIKENPNLLY”, “soluble”.
Next, “MNSGYSANIFPSSSSPTLYQSHQLPNPSATMYQATPRDMGKPPVRGKTSPYGFFVKMCYEEHKKKYPNENVQVTEISKKCSEKWKTMVDDEKRRFYELAQKDAERYQAEVSVAAYGGEDAMRKRKRAKKDPHAPKRALSAFFFYSQDKRPEIQAGHPDWKVGQVAQELGKMWKLVPQETKDMYEQKAQADKDRYADEMRNYKAEMQKMSGMDHYDDDNIHHVVHVEDINSQNIS”: “not soluble”; “MKCLVTGGNVKVLGKAVHSLSRIGDELYLEPLEDGLSLRTVNSSRSAYACFLFAPLFFQQYQAATPGQDLLRCKILMKSFLSVFRSLAMLEKTVEKCCISLNGRSSRLVVQLHCKFGVRKTHNLSFQDCESLQAVFDPASCPHMLRAPARVLGEAVLPFSPALAEVTLGIGRGRRVILRSYHEEEADSTAKAMVTEMCLGEEDFQQLQAQEGVAITFCLKEFRGLLSFAESANLNLSIHFDAPGRPAIFTIKDSLLDGHFVLATLS”: “soluble”; “MSLKKTQQKEIENVTNITGVRQIELWRRDDLQHPRLDEVAEEVPVALVYNGISHVVMMASPKDLEYFALGFSLSEGIIESPRDIFGMDVVPSCNGLEVQIELSSRRFMGLKERRRALAGRTGCGVCGVEQLNDIGKPVQPLPFTQTFDLNKLDDALRHLNDFQPVGQLTGCTHAAAWMLPSGELVGGHEDVGRHVALDKLLGRRSQEGESWQQGAVLVSSRASYEMVQKSAMCGVEILFAVSAATTLAVEVAERCNLTLVGFCKPGRATVYTHPQRLSNEGHHHHHH”: “soluble”.
For the sequence “MEENKQRVKSMINILQLVAPGTPLREGIDNVLRAQTGGLIVLGYNEQIKSIVDGGFHINCAFSPASLYELAKMDGALILNETGSKILIANAQLVPDSSIDSIETGMRHRTAERVAKQTGSLVVAISQRRNVITLYQGNLRYTLKDIGVILTKANQAIQTLEKYKAVWNDGITNLGILEFEEVVTMSEVVHVLHSVEMVLRIKNEILSYIHELGTEGRLIRLQLTELLADLEAEAALLIKDYHQEKTQDHHQILKKLQDLANTQLLEDSDLVKLLGYPGQTSLEESVTPRGYRITSKISRVPPLIIENLINRFKTLQGVCRATINELDDVEGIGEVRAKKIREGLKRIQEHLYMSRHN”, the “soluble on expression in E. coli” value is recorded as “not soluble”.
Turning to “MKLPDELRQAYQKNARQFSWVFPLETEQTALAIFAAGEKAYQGERFFWQTPKKDFALVGFGYETILKGAETETHQLNNFLKKEAATRFQNMSISGTGALLFGGLPFDTEQTPTEAWGELGEGWFYLPSILFTFSGSRIYGTLNFSGSSEQEVEERWSTLVAQFDRLLATCEELPAVAETKIDKEEVAVTEWLQAVNETVAVLREDGPLKKVVLARQLAVSSPEKIRSNQVLVNLMAQQQNTYLFALEAKDTSFIGATPERLLLGTKETFATACIAGTIKTGQTPEETKTLGAQLLQDRKNTGEHQIVVERLAKELAKMTTSENSIQAPIILENRDVQHLYVPISGQRKPGISFLESVMQLHPTPALGGEPKELAVEWIRQYEPGSRGLYGAPIGWISGNDDSGEFAVALRSGVFAGQQGVLYAGCGIVADSQAELEREETKIKFQPMLRGIGGQV”, the “soluble on expression in E. coli” value is listed as “not soluble”.
